Test results from article PMC10514269, “W546 stacking disruption traps the human porphyrin transporter ABCB6 in an outward-facing transient state” (Communications Biology, 2023).
Numbering of substitutions follows the chain as printed. Names and notes keep the numbering of the source.

B1: core region of human ABCB6 (residues 206-842, without TMD0) (domain or fragment, UniProt Q9NP58 206-842, looked up)
chain: APGLRPQSYTLQVHEEDQDVERSQVRSAAQQSTWRDFGRKLRLLSGYLWPRGSPALQLVVLICLGLMGLERALNVLVPIFYRNIVNLLTEKAPWNSLAWTVTSYVFLKFLQGGGTGSTGFVSNLRTFLWIRVQQFTSRRVELLIFSHLHELSLRWHLGRRTGEVLRIADRGTSSVTGLLSYLVFNVIPTLADIIIGIIYFSMFFNAWFGLIVFLCMSLYLTLTIVVTEWRTKFRRAMNTQENATRARAVDSLLNFETVKYYNAESYEVERYREAIIKYQGLEWKSSASLVLLNQTQNLVIGLGLLAGSLLCAYFVTEQKLQVGDYVLFGTYIIQLYMPLNWFGTYYRMIQTNFIDMENMFDLLKEETEVKDLPGAGPLRFQKGRIEFENVHFSYADGRETLQDVSFTVMPGQTLALVGPSGAGKSTILRLLFRFYDISSGCIRIDGQDISQVTQASLRSHIGVVPQDTVLFNDTIADNIRYGRVTAGNDEVEAAAQAAGIHDAIMAFPEGYRTQVGERGLKLSGGEKQRVAIARTILKAPGIILLDEATSALDTSNERAIQASLAKVCANRTTIVVAHRLSTVVNADQILVIKDGCIVERGRHEALLSRGGVYADMWQLQQGQEETSEDTKPQTMER
notes: Homodimer in the cryo-EM maps; also called hABCB6^core; ABCB6^core; not shown: eGFP, C-terminal, cleaved; 10×His, C-terminal, cleaved
B2: hABCB6^core-W546A mutant (domain or fragment, human, UniProt Q9NP58 206-842, looked up)
chain: B1 chain with W341A
notes: Homodimer in the cryo-EM structures; Used in detergent micelles and in nanodiscs (porcine brain polar lipids, hApoA-I (Δ1-43) scaffold); source: also reconstituted into nanodiscs; not shown: eGFP, C-terminal, cleaved; 10×His, C-terminal, cleaved

Target: the molecule itself
Test: cryo-EM structure; detergent-purified protein (6 mg/mL) incubated with 100 μM CPIII, 2 mM MgCl2, 2 mM ATP and 2 mM sodium orthovanadate for 30 min at 22 °C; single-particle analysis

Protein	binding result	stoichiometry N
B1	binds	
B2		2
